Data as given in article PMC5138847 (Scientific Reports, 2016).

Experiments:
[1] = target: T1, DrUox (zebrafish urate oxidase, uricase) (Danio rerio, UniProt Q6DG85, F216S); test: UV absorbance at […] nm, global fit to competitive inhibition; type: biochemical; details: read-out: Xanthine / Ki
T1 construct: gene uox; full length, 298 aa; N-terminal 6xHis tag (pET28b) for wt and F216S kinetics, untagged for crystals; E. coli BL21-CodonPlus(DE3); homotetramer
T1 sequence (Q6DG85 1-298 F216S): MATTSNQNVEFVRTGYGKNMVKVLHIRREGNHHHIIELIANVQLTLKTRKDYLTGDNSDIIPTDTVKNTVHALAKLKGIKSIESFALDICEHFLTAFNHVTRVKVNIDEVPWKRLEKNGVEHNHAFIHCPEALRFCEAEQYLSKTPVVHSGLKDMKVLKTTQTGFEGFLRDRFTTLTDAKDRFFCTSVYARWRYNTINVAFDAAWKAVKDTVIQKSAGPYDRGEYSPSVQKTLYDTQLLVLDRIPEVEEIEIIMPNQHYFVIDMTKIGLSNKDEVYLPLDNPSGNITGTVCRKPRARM

[2] = target: T2, DrUox (zebrafish urate oxidase, uricase) (Danio rerio, UniProt Q6DG85); test: UV absorbance, global fit to competitive inhibition; type: biochemical; details: read-out: Xanthine / Ki
T2 construct: gene uox; full length, 298 aa; N-terminal 6xHis tag (pET28b) for wt and F216S kinetics, untagged for crystals; E. coli BL21-CodonPlus(DE3); homotetramer
T2 sequence (Q6DG85 1-298): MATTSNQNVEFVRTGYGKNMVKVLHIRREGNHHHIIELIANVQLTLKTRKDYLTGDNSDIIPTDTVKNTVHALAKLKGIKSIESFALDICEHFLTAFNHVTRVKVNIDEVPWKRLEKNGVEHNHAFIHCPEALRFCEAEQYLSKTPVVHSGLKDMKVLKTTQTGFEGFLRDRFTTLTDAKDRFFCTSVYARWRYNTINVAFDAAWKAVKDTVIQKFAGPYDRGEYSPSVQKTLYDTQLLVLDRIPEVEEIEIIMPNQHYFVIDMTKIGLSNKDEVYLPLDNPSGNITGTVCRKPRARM

purified protein = substrate: O=c1[nH]c(=O)c2[nH]c(=O)[nH]c2[nH]1; test: purified protein; details: 100 mM potassium phosphate pH 7.6, 25 °C, equimolar DrUrah
[3] = target: the molecule itself; test: SEC; HPLC-SEC on a Superdex 200 increase 3.2/300 column, native conditions, about 13 ug of each sample, elution monitored at 280 nm, calibrated with standards
[4] = target: the molecule itself; test: crystal structure; untagged DrUox 10 mg/ml (10 mM Tris-HCl pH 7.6, 1 mM EDTA), crystallised in 0.1 M Tris-HCl pH 8.5, 8% PEG 8000; space group P21, two tetramers in the asymmetric unit; 2.8 A

O=c1[nH]c(=O)c2[nH]cnc2[nH]1 [xanthine] gave a Ki [1] of 59.2 ± 8.2 µM and a Ki [2] of 4.3 ± 0.27 µM.

B1: DrUox (zebrafish urate oxidase, uricase) (Danio rerio) (protein)
chain: MATTSNQNVEFVRTGYGKNMVKVLHIRREGNHHHIIELIANVQLTLKTRKDYLTGDNSDIIPTDTVKNTVHALAKLKGIKSIESFALDICEHFLTAFNHVTRVKVNIDEVPWKRLEKNGVEHNHAFIHCPEALRFCEAEQYLSKTPVVHSGLKDMKVLKTTQTGFEGFLRDRFTTLTDAKDRFFCTSVYARWRYNTINVAFDAAWKAVKDTVIQKFAGPYDRGEYSPSVQKTLYDTQLLVLDRIPEVEEIEIIMPNQHYFVIDMTKIGLSNKDEVYLPLDNPSGNITGTVCRKPRARM
With B1 the Km (purified protein) was 11 ± 1 µM, the kcat (purified protein) was 3.95 s⁻¹ and the kcat/Km (purified protein) was 360000 M⁻¹ s⁻¹.

B2: zebrafish urate oxidase, His-tagged wild type (enzyme, zebrafish (Danio rerio), UniProt Q6DG85 1-298, looked up)
chain: MATTSNQNVEFVRTGYGKNMVKVLHIRREGNHHHIIELIANVQLTLKTRKDYLTGDNSDIIPTDTVKNTVHALAKLKGIKSIESFALDICEHFLTAFNHVTRVKVNIDEVPWKRLEKNGVEHNHAFIHCPEALRFCEAEQYLSKTPVVHSGLKDMKVLKTTQTGFEGFLRDRFTTLTDAKDRFFCTSVYARWRYNTINVAFDAAWKAVKDTVIQKFAGPYDRGEYSPSVQKTLYDTQLLVLDRIPEVEEIEIIMPNQHYFVIDMTKIGLSNKDEVYLPLDNPSGNITGTVCRKPRARM
notes: also called wt DrUox; His-tagged wt; source: E. coli BL21-CodonPlus(DE3), purified (Talon cobalt resin)
With B2 the “stoichiometry N” value [3] was 4.

B3: zebrafish (Danio rerio) urate oxidase, untagged wild type (enzyme, UniProt Q6DG85 1-298, looked up)
chain: MATTSNQNVEFVRTGYGKNMVKVLHIRREGNHHHIIELIANVQLTLKTRKDYLTGDNSDIIPTDTVKNTVHALAKLKGIKSIESFALDICEHFLTAFNHVTRVKVNIDEVPWKRLEKNGVEHNHAFIHCPEALRFCEAEQYLSKTPVVHSGLKDMKVLKTTQTGFEGFLRDRFTTLTDAKDRFFCTSVYARWRYNTINVAFDAAWKAVKDTVIQKFAGPYDRGEYSPSVQKTLYDTQLLVLDRIPEVEEIEIIMPNQHYFVIDMTKIGLSNKDEVYLPLDNPSGNITGTVCRKPRARM
notes: cDNA IMAGE:100059545; In the crystal, electron density runs from Gly8 to Pro294; Cys129 forms an inter-subunit disulfide (chains A-C and B-D); also called DrUox; Uox; source: E. coli BL21-CodonPlus(DE3), purified (xanthine-agarose column, eluted with urate)
With B3 the “stoichiometry N” value [4] was 4.

B4: zebrafish urate oxidase F216S mutant, His-tagged (enzyme, zebrafish (Danio rerio), UniProt Q6DG85 1-298, looked up)
chain: MATTSNQNVEFVRTGYGKNMVKVLHIRREGNHHHIIELIANVQLTLKTRKDYLTGDNSDIIPTDTVKNTVHALAKLKGIKSIESFALDICEHFLTAFNHVTRVKVNIDEVPWKRLEKNGVEHNHAFIHCPEALRFCEAEQYLSKTPVVHSGLKDMKVLKTTQTGFEGFLRDRFTTLTDAKDRFFCTSVYARWRYNTINVAFDAAWKAVKDTVIQKSAGPYDRGEYSPSVQKTLYDTQLLVLDRIPEVEEIEIIMPNQHYFVIDMTKIGLSNKDEVYLPLDNPSGNITGTVCRKPRARM
notes: also called F216S DrUox; mutant DrUox; source: E. coli BL21-CodonPlus(DE3), purified (Talon cobalt resin)
Work on B4 yielded a Km (purified protein) of 284 ± 31 µM, a kcat (purified protein) of 3.99 s⁻¹ and a kcat/Km (purified protein) of 14000 M⁻¹ s⁻¹. The “stoichiometry N” value [3] was 4.
